Measured values published in US20010019714A1 (priority 1998, published 2001).

Target: T1, HLA-A2 on T2 cells (Homo sapiens, UniProt P04439, D140Y/D185E/D98H/E176V/E277Q/G131W/G231S/I119V/I121R/I166T/I218V/L300P/L318F/N151K/N90K/P208A/P217A/Q86G/Q94H/R138H/R169H/T345S)
T1 construct: T2 cell line expressing the HLA-A2 molecules; endogenous in cells; host or cells: T2 cell line (TAP-deficient), from Dr Peter Creswell, Yale University
Assay: peptide-induced MHC class 1 assembly assay (HLA-A2 binding and stabilization, FACS)
Type: cell-based
Settings: for binding to HLA-A2 on T2 cells (shift of fluorescent peak): antibody BB7.2, FACS, FIG. 1; for order of potency by comparison of fluorescence indices: fluorescence index = mean fluorescence of peptide treated T2 cells / untreated T2 cells
Experimental: Location of the potential CTL containing motifs of the HIV-1(LAI) Rev protein has been predicted by the reported peptide-binding motif algorithms. […] The ability of the peptides containing these motifs to bind and stablize membrane-bound HLA-A2 molecule was assessed using the T2 cell line. The cell line has been well documented to have defective TAP transporter function resulting in the majority of the intracellularly generated peptides being unable to be transported into the endoplasmic reticulum to associate with the newly synthesized HLA class 1 molecules, i.e. HLA-A2 (see references 4, 5). […] Upon interaction with suitable peptides introduced exogenously, the stability of the HLA-A2 molecules can be restored.
T2 cell line expressing the HLA-A2 molecules was obtained from Dr Peter Creswell at the Howard Hughes Research Institute of Yale University. The cells were propagated in Iscove's complete medium (Iscove's medium supplemented with 10% heat-inactivated bovine serum, 120.0 units per ml of penicilin G sodium, 120 μg per ml of streptomycin sulphate, and 0.35 mg per ml of L-glutamine). The ability of individual 8 to 13 mer peptides, prepared as described in Example 1 and identified in Table 1, to bind and modulate the stability of the A2 molecules on T2 cells was determined using a peptide-induced MHC class 1 assembly assay, which was modified from a protocol described by Yuping Deng et al. (ref. 6).
In essence, 1×10^6 T2 cells were incubated with a specified concentration of the test peptide in 250.0 μl of Iscove's serum-free medium (Iscove's medium supplemented with 120.0 units per ml of penicillin G sodium, 120.0 ug per ml of streptomycin sulphate and 0.35 mg per ml of L-glutamine) in a sterile Eppendorf tube at 37° C. overnight. The cells were then incubated on ice for 30 min before 1.0 ml of Iscove's complete medium supplemented with 5.0 ug per ml of brefeldin A, 12.5 ug per ml of anisomycin and 5.0 ug per ml of cyclohexamide was added. The samples were then incubated for 3.0 hr in a 37° C. CO2 incubator.
In the presence of the drugs, further protein synthesis and intracellular delivery of HLA-A2 molecules to the cell surface are inhibited, and de-stabilization of the conformation of the membrane-bound class 1 molecules at the physiological temperature occurs.
The cells were then washed twice with ice-cold PBA (a buffer containing 0.9% sodium chloride, 0.5% bovine serum albumin and 0.02% sodium azide). 100.0 ul of PBA containing 5.0 ug of a conformation-sensitive HLA-A2-specific mouse monoclonal antibody, BB7.2 (ref. 7), was then added to each test sample. The reaction was allowed to take place on ice for 45 min. The cells were then washed three times with ice-cold PBA.
The binding of BB7.2 was then detected by adding […] containing 1.0 ug of goat anti-mouse IgG F(ab′) fluorescein (FITC) conjugate to each cell sample. After 30 min incubation on ice, the cells were washed twice with PBA, and twice again with PBS, pH 7.2. Cells were fixed immediately after washing was completed by adding 100.0 ul of 1.0% paraformaldehyde to the cell pellet. The cells were gently resuspended and were FACS analysed usually within three days after the experiments were completed.
The fluorescence index, which is an indicator for increased density of membrane-bound A2 molecules, was calculated by dividing the mean fluorescence of an experimental sample (peptide treated T2 cells) by the mean fluorescence of the control sample (T2 cells not treated with peptide).

ILVESPAVL [CLP-72]
binding to HLA-A2 on T2 cells (shift of fluorescent peak): capable of binding to HLA-A2 on T2 cells
order of potency by comparison of fluorescence indices: CLP-177>CLP-72>CLP-178>CLP-182

PLQLPPLERLIL [CLP-182]
binding to HLA-A2 on T2 cells (shift of fluorescent peak): capable of binding to HLA-A2 on T2 cells
order of potency by comparison of fluorescence indices: CLP-177>CLP-72>CLP-178>CLP-182

YLGRSAEPV [CLP-177]
binding to HLA-A2 on T2 cells (shift of fluorescent peak): capable of binding to HLA-A2 on T2 cells
order of potency by comparison of fluorescence indices: CLP-177>CLP-72>CLP-178>CLP-182

YLGRSAEPVPL [CLP-178]
binding to HLA-A2 on T2 cells (shift of fluorescent peak): capable of binding to HLA-A2 on T2 cells
order of potency by comparison of fluorescence indices: CLP-177>CLP-72>CLP-178>CLP-182
